Each block holds one binder with its values, some of them ahead of it.
Key:
[1] = target: MET receptor tyrosine kinase, wild type, full length, P08581
[2] = target: T1, Recombinant human Smad2 (NM 005901) with C-terminal MYC/DDK tag (human, UniProt Q15796 1-467); experiment: peptide-protein interaction assay: M10 and DDK-tagged Smad2 (1 µg each), capture with C12 antibody and protein G sepharose, anti-DDK immunoblot
T1 construct: Bought from OriGene; also called DDK-tagged recombinant Smad2; DDK-tagged Smad2; not shown: C-terminal MYC/DDK tag

[3] = target: T2, Recombinant human Smad4 (NM 005359) with C-terminal MYC/DDK tag (human, UniProt Q13485 1-552); experiment: peptide-protein interaction assay: capture with C12 antibody and protein G sepharose, anti-DDK immunoblot
T2 construct: Bought from OriGene; also called DDK-tagged recombinant Smad4; DDK-tagged Smad4; not shown: C-terminal MYC/DDK tag
T2 sequence (looked up): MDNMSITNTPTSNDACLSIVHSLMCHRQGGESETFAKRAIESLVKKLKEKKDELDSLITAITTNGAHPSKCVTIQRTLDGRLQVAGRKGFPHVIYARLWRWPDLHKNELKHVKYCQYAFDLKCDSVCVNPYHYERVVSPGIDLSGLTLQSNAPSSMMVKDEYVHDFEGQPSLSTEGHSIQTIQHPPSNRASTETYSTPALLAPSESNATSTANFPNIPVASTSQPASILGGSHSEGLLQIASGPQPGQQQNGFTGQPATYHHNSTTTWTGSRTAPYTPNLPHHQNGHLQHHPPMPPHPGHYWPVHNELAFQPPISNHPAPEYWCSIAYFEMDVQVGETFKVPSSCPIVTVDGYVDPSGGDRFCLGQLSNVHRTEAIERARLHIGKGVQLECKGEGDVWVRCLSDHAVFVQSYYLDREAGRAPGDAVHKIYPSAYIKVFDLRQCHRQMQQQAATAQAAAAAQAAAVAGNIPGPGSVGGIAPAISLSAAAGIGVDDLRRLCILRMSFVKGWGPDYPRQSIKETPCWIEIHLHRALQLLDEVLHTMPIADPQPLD

T1 sequence (Q15796 whole entry): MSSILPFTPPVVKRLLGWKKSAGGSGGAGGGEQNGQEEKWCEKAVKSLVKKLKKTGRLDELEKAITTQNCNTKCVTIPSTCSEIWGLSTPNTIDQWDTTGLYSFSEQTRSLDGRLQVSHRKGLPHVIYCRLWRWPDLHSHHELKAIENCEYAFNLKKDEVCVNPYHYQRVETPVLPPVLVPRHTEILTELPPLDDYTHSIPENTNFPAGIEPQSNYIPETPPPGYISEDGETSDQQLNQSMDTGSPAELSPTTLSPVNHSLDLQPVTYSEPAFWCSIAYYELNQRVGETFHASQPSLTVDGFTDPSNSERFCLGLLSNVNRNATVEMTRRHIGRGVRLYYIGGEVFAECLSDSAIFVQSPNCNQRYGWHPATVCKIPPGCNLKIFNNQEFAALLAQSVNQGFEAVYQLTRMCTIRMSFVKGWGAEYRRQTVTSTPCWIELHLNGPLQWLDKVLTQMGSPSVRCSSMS
MET receptor tyrosine kinase, wild type, full length, P08581, sequence (P08581 whole entry, looked up): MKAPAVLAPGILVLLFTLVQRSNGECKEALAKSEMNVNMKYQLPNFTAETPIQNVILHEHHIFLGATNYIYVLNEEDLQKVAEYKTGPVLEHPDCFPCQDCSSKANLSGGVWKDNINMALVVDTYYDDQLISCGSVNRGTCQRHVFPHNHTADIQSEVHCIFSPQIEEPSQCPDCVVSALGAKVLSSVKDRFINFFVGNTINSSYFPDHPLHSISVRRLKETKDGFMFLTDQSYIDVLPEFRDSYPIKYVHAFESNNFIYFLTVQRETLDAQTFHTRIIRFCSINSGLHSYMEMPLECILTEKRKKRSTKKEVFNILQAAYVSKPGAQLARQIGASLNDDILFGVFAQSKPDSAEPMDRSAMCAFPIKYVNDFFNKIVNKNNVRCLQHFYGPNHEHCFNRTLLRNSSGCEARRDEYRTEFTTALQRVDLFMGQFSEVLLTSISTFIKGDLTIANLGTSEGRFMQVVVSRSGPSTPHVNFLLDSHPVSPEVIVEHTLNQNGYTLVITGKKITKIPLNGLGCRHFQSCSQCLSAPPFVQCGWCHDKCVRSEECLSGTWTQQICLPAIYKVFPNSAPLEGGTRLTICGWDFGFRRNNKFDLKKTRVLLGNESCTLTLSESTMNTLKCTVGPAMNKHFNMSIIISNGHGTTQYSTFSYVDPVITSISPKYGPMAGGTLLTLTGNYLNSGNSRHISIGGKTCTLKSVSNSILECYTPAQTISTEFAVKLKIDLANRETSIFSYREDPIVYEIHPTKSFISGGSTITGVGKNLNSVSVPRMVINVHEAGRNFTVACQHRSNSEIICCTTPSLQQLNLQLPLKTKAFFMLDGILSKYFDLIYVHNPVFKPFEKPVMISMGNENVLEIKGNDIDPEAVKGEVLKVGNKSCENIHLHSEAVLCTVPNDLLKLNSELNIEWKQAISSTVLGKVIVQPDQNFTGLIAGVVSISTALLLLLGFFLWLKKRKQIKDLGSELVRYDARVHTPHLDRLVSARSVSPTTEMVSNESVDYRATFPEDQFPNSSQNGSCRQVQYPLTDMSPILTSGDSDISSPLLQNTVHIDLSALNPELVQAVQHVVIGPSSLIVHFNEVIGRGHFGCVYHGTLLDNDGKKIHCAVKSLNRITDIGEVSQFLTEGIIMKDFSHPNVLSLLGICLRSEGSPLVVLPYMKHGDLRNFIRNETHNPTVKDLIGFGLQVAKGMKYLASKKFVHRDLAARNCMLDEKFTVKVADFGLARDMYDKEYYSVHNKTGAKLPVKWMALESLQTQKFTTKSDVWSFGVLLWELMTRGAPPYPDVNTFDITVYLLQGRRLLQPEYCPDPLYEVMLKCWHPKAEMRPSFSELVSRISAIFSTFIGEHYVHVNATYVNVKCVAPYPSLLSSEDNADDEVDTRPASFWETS

B1: caspase-3 (activated, endogenous in lung fibroblasts and alveolar epithelial cells) (protein)
chain: SGISLDNSYKMDYPEMGLCIIINNKNFHKSTGMTSRSGTDVDAANLRETFRNLKYEVRNKNDLTREEIVELMRDVSKEDHSKRSSFVCVLLSHGEEGIIFGTNGPVDLKKITNFFRGDRCRSLTGKPKLFIIQACRGTELDCGIETDSGVDDDMACHKIPVEADFLYAYSTAPGYYSWRNSKDGSWFIQSLCAMLKQYADKLEFMHILTRVNRKVATEFESFSFDATFHAKKQIPCIVSMLTKELYFYH
cleavage of the MET C-terminus (loss of C12 signal in Western blot) [1]: Cisplatin-induced caspase-3 cleavage was associated with a loss of detectable MET protein in Western blots with the C12 antibody

binding result [2]: binds
binding result [3]: no binding (tested: 1 µg each)
B2: M10 peptide (TRPASFWETS), synthetic (peptide)
peptide: TRPASFWETS
notes: Synthetic peptide from GenScript; A 5,6-TAMRA conjugate (at the N-terminus) was used only for localisation; also called 2 kD C-terminal fragment (M10) of the MET receptor; last 10 amino acids of MET

Reference: patent US20180215802A1 (MUSC FOUNDATION FOR RESEARCH DEVELOPMENT, published 2018)
